Measured values: publication PMC11256085

Target: EnfB, ThiF-like adenylyltransferase (TLAT) (Enterococcus faecium strain FDAARGOS_397 (methods); E. faecalis FDAARGOS_397 (results))

## EnfA with Trp18 substituted by Ala (peptide)
  conversion of the EnfA variant by EnfB (in vitro enzyme assay, LC-MS): 2.1%
